Source: paper PMC3228903

Legend:
[1] = substrate: NCCc1ccccc1; assay: Steady-state substrate oxidation and pH dependence, WT MAO B; type: biochemical, human; details: other: WT MAO B, pH 7.5
[2] = substrate: NCCC(=O)c1ccccc1N; assay: as above; type: biochemical, human; details: other: WT MAO B, pH 7.5
[3] = substrate: NCc1ccccc1; assay: purified protein, by the assay type; details: pH 7.5
[4] = substrate: NCCc1ccccc1; assay: Steady-state substrate oxidation and pH dependence, Ile199Ala/Tyr326Ala MAO B; type: biochemical, human; details: other: I199A-Y326A, pH 7.5
[5] = substrate: NCCC(=O)c1ccccc1N; assay: as above; type: biochemical, human; details: other: I199A-Y326A, pH 7.5
[6] = substrate: NCCc1ccccc1; assay: Steady-state substrate oxidation and pH dependence, Ile199Ala MAO B; type: biochemical, human; details: other: I199A, pH 7.5
[7] = substrate: NCCC(=O)c1ccccc1N; assay: as above; type: biochemical, human; details: other: I199A, pH 7.5

B1: WT MAO B (Homo sapiens) (protein)
chain: MSNKCDVVVVGGGISGMAAAKLLHDSGLNVVVLEARDRVGGRTYTLRNQKVKYVDLGGSYVGPTQNRILRLAKELGLETYKVNEVERLIHHVKGKSYPFRGPFPPVWNPITYLDHNNFWRTMDDMGREIPSDAPWKAPLAEEWDNMTMKELLDKLCWTESAKQLATLFVNLCVTAETHEVSALWFLWYVKQCGGTTRIISTTNGGQERKFVGGSGQVSERIMDLLGDRVKLERPVIYIDQTRENVLVETLNHEMYEAKYVISAIPPTLGMKIHFNPPLPMMRNQMITRVPLGSVIKCIVYYKEPFWRKKDYCGTMIIDGEEAPVAYTLDDTKPEGNYAAIMGFILAHKARKLARLTKEERLKKLCELYAKVLGSLEALEPVHYEEKNWCEEQYSGGCYTTYFPPGILTQYGRVLRQPVDRIYFAGTETATHWSGYMEGAVEAGERAAREILHAMGKIPEDEIWQSEPESVDVPAQPITTTFLERHLPSVPGLLRLIGLTTIFSATALGFLAHKRGLLVRV
Q: Which Km [1] does the source give for B1 here?
A: 9.4 ± 0.9 µM

Q: And the kcat [1]?
A: 2.87 ± 0.05 s⁻¹

Q: What about the kcat/Km [1] of the same protein?
A: 300000 ± 33300 M⁻¹ s⁻¹

Q: And the Km [2]?
A: 27 ± 2 µM

Q: What about the kcat [2] of the same protein?
A: 1.6 ± 0.0167 s⁻¹

Q: What about the kcat/Km [2] of the same protein?
A: 59200 ± 4500 M⁻¹ s⁻¹

Q: What about the Km ([3]; other: WT MAO B) of the same protein?
A: 150 ± 27 µM

Q: What about the kcat ([3]; other: WT MAO B) of the same protein?
A: 5 s⁻¹

Q: And the kcat/Km ([3]; other: WT MAO B)?
A: 33300 M⁻¹ s⁻¹

B2: Ile199Ala/Tyr326Ala MAO B (Homo sapiens; I199A/Y326A) (protein)
chain: MSNKCDVVVVGGGISGMAAAKLLHDSGLNVVVLEARDRVGGRTYTLRNQKVKYVDLGGSYVGPTQNRILRLAKELGLETYKVNEVERLIHHVKGKSYPFRGPFPPVWNPITYLDHNNFWRTMDDMGREIPSDAPWKAPLAEEWDNMTMKELLDKLCWTESAKQLATLFVNLCVTAETHEVSALWFLWYVKQCGGTTRIASTTNGGQERKFVGGSGQVSERIMDLLGDRVKLERPVIYIDQTRENVLVETLNHEMYEAKYVISAIPPTLGMKIHFNPPLPMMRNQMITRVPLGSVIKCIVYYKEPFWRKKDYCGTMIIDGEEAPVAATLDDTKPEGNYAAIMGFILAHKARKLARLTKEERLKKLCELYAKVLGSLEALEPVHYEEKNWCEEQYSGGCYTTYFPPGILTQYGRVLRQPVDRIYFAGTETATHWSGYMEGAVEAGERAAREILHAMGKIPEDEIWQSEPESVDVPAQPITTTFLERHLPSVPGLLRLIGLTTIFSATALGFLAHKRGLLVRV
Q: Which Km [4] does the source give for B2 here?
A: 703 ± 58 µM

Q: And the kcat [4]?
A: 1.83 ± 0.0333 s⁻¹

Q: What about the kcat/Km [4] of the same protein?
A: 2670 ± 167 M⁻¹ s⁻¹

Q: And the Km [5]?
A: 289 ± 23 µM

Q: What about the kcat [5] of the same protein?
A: 1.07 ± 0.0333 s⁻¹

Q: And the kcat/Km [5]?
A: 3670 ± 333 M⁻¹ s⁻¹

B3: Ile199Ala MAO B (Homo sapiens; I199A) (protein)
chain: MSNKCDVVVVGGGISGMAAAKLLHDSGLNVVVLEARDRVGGRTYTLRNQKVKYVDLGGSYVGPTQNRILRLAKELGLETYKVNEVERLIHHVKGKSYPFRGPFPPVWNPITYLDHNNFWRTMDDMGREIPSDAPWKAPLAEEWDNMTMKELLDKLCWTESAKQLATLFVNLCVTAETHEVSALWFLWYVKQCGGTTRIASTTNGGQERKFVGGSGQVSERIMDLLGDRVKLERPVIYIDQTRENVLVETLNHEMYEAKYVISAIPPTLGMKIHFNPPLPMMRNQMITRVPLGSVIKCIVYYKEPFWRKKDYCGTMIIDGEEAPVAYTLDDTKPEGNYAAIMGFILAHKARKLARLTKEERLKKLCELYAKVLGSLEALEPVHYEEKNWCEEQYSGGCYTTYFPPGILTQYGRVLRQPVDRIYFAGTETATHWSGYMEGAVEAGERAAREILHAMGKIPEDEIWQSEPESVDVPAQPITTTFLERHLPSVPGLLRLIGLTTIFSATALGFLAHKRGLLVRV
Q: With B3 as the protein, how does the Km [6] read?
A: 40 ± 2 µM

Q: What about the kcat [6] of the same protein?
A: 2.05 ± 0.0333 s⁻¹

Q: What about the kcat/Km [6] of the same protein?
A: 51700 ± 3330 M⁻¹ s⁻¹

Q: And the Km [7]?
A: 94 ± 8 µM

Q: And the kcat [7]?
A: 1.47 ± 0.0333 s⁻¹

Q: What about the kcat/Km [7] of the same protein?
A: 15600 ± 1370 M⁻¹ s⁻¹

Q: And the Km ([3]; other: I199A)?
A: 2133 ± 409 µM

Q: And the kcat ([3]; other: I199A)?
A: 3.8 s⁻¹

Q: What about the kcat/Km ([3]; other: I199A) of the same protein?
A: 1780 M⁻¹ s⁻¹
